Biological target: H4K12ac-TAMRA peptide
Experiment: fluorescence polarisation
Conditions: 8 nM H4K12ac-TAMRA peptide; value read at the highest BD mut concentration shown, est. about 500-600 nM; parent: est. 80; read off a plot

Chain of ATAD2^342-1390 WT (Q6PL18 342-1390 V1013A/Y1021A/I1074A, change not shown): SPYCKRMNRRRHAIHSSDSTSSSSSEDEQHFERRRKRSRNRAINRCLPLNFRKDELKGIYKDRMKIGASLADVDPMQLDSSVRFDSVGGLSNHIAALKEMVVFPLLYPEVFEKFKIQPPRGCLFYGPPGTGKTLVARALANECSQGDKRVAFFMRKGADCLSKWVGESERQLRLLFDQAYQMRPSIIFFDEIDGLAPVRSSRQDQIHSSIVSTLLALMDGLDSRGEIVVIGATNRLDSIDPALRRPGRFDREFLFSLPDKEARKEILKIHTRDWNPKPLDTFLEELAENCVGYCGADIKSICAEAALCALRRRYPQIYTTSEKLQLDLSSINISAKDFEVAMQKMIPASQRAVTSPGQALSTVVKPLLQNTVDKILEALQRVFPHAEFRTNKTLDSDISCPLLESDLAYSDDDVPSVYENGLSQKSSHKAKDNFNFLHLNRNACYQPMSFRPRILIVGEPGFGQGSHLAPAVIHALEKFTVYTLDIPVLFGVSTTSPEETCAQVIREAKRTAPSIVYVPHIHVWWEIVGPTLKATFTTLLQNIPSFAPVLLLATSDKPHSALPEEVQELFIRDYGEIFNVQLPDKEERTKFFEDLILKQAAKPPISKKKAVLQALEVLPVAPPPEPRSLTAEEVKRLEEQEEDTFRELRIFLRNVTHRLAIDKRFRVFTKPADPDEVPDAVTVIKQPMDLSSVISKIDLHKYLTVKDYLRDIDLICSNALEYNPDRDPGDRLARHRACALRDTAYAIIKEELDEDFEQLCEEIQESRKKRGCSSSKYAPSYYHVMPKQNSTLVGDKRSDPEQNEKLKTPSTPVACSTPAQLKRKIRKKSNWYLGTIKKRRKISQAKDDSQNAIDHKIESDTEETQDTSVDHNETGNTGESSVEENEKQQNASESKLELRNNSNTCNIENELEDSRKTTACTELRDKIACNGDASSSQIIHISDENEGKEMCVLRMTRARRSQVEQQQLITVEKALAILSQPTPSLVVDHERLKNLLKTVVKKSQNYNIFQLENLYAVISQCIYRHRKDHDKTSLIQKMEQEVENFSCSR

response: 14 mP
Substance: ATAD2^342-1390 WT (from UniProt Q6PL18) BD mut

Source: PMC5342555, “ATAD2 is an epigenetic reader of newly synthesized histone marks during DNA replication” (Oncotarget, 2016)
